# Test results taken from patent publication US20210188980A1 (SHANGHAI EPIMAB BIOTHERAPEUTICS, published 2021).
# Residue numbers refer to the chain shown, from its start.
# T1: recombinant human LAG-3-his protein (Novoprotein) (human, UniProt P18627 23-450)
# T1 construct: Bought; also called huLAG-3; not shown: His tag
# T1 sequence (looked up): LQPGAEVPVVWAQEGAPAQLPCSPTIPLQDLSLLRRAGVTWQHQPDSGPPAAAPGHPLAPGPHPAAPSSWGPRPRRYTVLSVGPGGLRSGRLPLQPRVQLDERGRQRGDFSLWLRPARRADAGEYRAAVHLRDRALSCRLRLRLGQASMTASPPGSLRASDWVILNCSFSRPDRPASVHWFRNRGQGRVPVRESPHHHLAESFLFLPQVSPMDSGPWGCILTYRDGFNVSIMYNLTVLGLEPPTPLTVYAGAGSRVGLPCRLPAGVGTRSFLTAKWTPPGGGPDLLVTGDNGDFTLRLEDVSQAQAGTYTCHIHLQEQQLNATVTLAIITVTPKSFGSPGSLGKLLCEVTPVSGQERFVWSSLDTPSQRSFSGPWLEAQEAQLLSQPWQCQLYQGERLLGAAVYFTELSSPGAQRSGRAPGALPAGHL
# B1: HumAb747-46 (antibody, human IgG1, V domains shown)
# VH: EVQLVQSGAEVKKPGATVKLSCTASDFNIKDDYMHWVKQAPGKGLEWIGWIVPENGNTEYASKFQGRATITADTSTNTAYLELSSLRSEDTAVYYCTVYGDYWGQGTTVTVSS
# VL: DIQMTQSPSSLSASVGDRVTITCRASQEISGYLSWLQQKPGKAIKSLIYAASTLDSGVPSRFSGSRSGTDFTLTISSLQPEDFATYYCLQYASYPLTFGQGTKLEIK
# notes: humanized mAb747; human IgG1/kappa constant domains
# B2: HumAb747-43 (antibody, human IgG1, V domains shown)
# VH: B1 VH with L20I, T23K, A24V, K38Q, A68V, N77D
# VL: B1 VL
# notes: as for B1
# B3: HumAb747-47 (antibody, human IgG1, V domains shown)
# VH: B1 VH with L20I, T23K, A24V, K38Q, A68V, N77D
# VL: B1 VL with S46R
# notes: as for B1
# B4: HumAb747-44 (antibody, human IgG1, V domains shown)
# VH: B1 VH with T23K, K38Q, A68V, N77D
# VL: B1 VL
# notes: as for B1
# B5: HumAb747-48 (antibody, human IgG1, V domains shown)
# VH: B1 VH with T23K, K38Q, A68V, N77D
# VL: B1 VL with S46R
# notes: as for B1
# B6: HumAb747-45 (antibody, human IgG1, V domains shown)
# VH: B1 VH with K38Q, A68V, N77D
# VL: B1 VL
# notes: as for B1
# B7: HumAb747-54 (antibody, human IgG1, V domains shown)
# VH: B1 VH
# VL: B1 VL with K42G, S46R, T69S, F71Y, T85D, I106L
# notes: as for B1
# B8: HumAb747-53 (antibody, human IgG1, V domains shown)
# VH: B1 VH with K38Q, A68V, N77D
# VL: B1 VL with K42G, S46R, T69S, F71Y, T85D, I106L
# notes: as for B1
# B9: HumAb747-49 (antibody, human IgG1, V domains shown)
# VH: B1 VH with K38Q, A68V, N77D
# VL: B1 VL with S46R
# notes: as for B1
# B10: HumAb747-50 (antibody, human IgG1, V domains shown)
# VH: B1 VH
# VL: B1 VL with S46R
# notes: as for B1
# B11: HumAb747-51 (antibody, human IgG1, V domains shown)
# VH: B1 VH with L20I, T23K, A24V, K38Q, A68V, N77D
# VL: B1 VL with K42G, S46R, T69S, F71Y, T85D, I106L
# notes: as for B1
# B12: HumAb747-52 (antibody, human IgG1, V domains shown)
# VH: B1 VH with T23K, K38Q, A68V, N77D
# VL: B1 VL with K42G, S46R, T69S, F71Y, T85D, I106L
# notes: as for B1
# B13: B3-48-IgG (antibody, V domains shown)
# VH: EVQLVQSGAEVKKPGASVKVSCKASDFSIKDDYMHWVRQAPGQGLEWIGWIVPENGKTEYASKFQGRVTITADTSINTAYMELSRLRSDDTAVYYCTVYGDYWGQGTTVTVSS
# VL: B1 VL with T22N, G41E, K42G, A43T, S46R, S52M, T69S, F71Y, Q100G, L104V
# notes: human IgG1/kappa constant domains
# B14: B2-53-IgG (antibody, V domains shown)
# VH: B13 VH with D26G, S28N, K57N, E59V
# VL: B1 VL with T22N, G41E, K42G, A43T, S46R, T53A, T69S, F71Y, Q100G, L104V
# notes: human IgG1/kappa constant domains; also called B82-53
# B15: B3-46-IgG (antibody, V domains shown)
# VH: B13 VH with D26G, S28N, K57L
# VL: B1 VL with T22N, G41E, K42G, A43T, S46R, A51T, T69S, F71Y, Q100G, L104V
# notes: as for B13
# B16: B3-69-IgG (antibody, V domains shown)
# VH: B13 VH with D26G, S28N, K57N, E59H
# VL: B1 VL with T22N, G41E, K42G, A43T, S46R, A50E, T69S, F71Y, Q100G, L104V
# notes: as for B13
# B17: B3-43-IgG (antibody, V domains shown)
# VH: B13 VH with D26G, S28N, R38C, K57N
# VL: B1 VL with T22N, G41E, K42G, A43T, S46R, T53H, T69S, F71Y, Q100G, L104V
# notes: as for B13
# B18: B3-21-IgG (antibody, V domains shown)
# VH: B13 VH with S28N, K57N, Y102V
# VL: DIQMTQSPSSLSASVGDRVTINCRAMQEISGYLSWLQQKPEGTIKRLIYAASTLDSGVPSRFSGSRSGSDYTLTISSLQPEDFATYYCLQYAYYPLTFGGGTKVEIK
# notes: as for B13
# B19: HumAb747V-62 (antibody, human IgG1, V domains shown)
# VH: B1 VH with D26G, A40R, G42E, K43Q, E46D, E54R, E59M, R67K
# VL: B1 VL with K42G, S46R, S56L, T69S, F71Y, T85D, I106L
# notes: engineered HumAb747-60 variant; human IgG1/kappa constant domains
# B20: HumAb747V-65 (antibody, human IgG1, V domains shown)
# VH: B1 VH with D26G, A40R, G42E, K43Q, E46D, E54R, E59M, R67K
# VL: B1 VL with K42G, S46R, T69S, F71Y, T85D, I106L
# notes: as for B19
# B21: HumAb747V-63 (antibody, human IgG1, V domains shown)
# VH: B1 VH with D26G, A40R, G42E, K43Q, E46D, E54R, E59M, R67K
# VL: B1 VL with K42G, S46R, T53A, T69S, F71Y, T85D, I106L
# notes: as for B19
# B22: HumAb747V-64 (antibody, human IgG1, V domains shown)
# VH: B1 VH with D26G, A40R, G42E, K43Q, E46D, E54R, E59M, R67K
# VL: B1 VL with K42G, S46R, T53A, S56L, T69S, F71Y, T85D, I106L
# notes: as for B19
# B23: HumAb747V-66 (antibody, human IgG1, V domains shown)
# VH: B1 VH with D26G, A40R, G42E, K43Q, E46D, E59V, R67K
# VL: B1 VL with K42G, S46R, S56L, T69S, F71Y, T85D, I106L
# notes: as for B19
# B24: HumAb747V-61 (antibody, human IgG1, V domains shown)
# VH: B1 VH with A40R, G42E, K43Q, E46D, G56A, R67K
# VL: B1 VL with K42G, S46R, T69S, F71Y, T85D, I106L
# notes: as for B13
# B25: HumAb747V-68 (antibody, human IgG1, V domains shown)
# VH: B1 VH with D26G, A40R, G42E, K43Q, E46D, E59V, R67K
# VL: B1 VL with K42G, S46R, T53A, S56L, T69S, F71Y, T85D, I106L
# notes: as for B19
# B26: HumAb747V-69 (antibody, human IgG1, V domains shown)
# VH: B1 VH with D26G, A40R, G42E, K43Q, E46D, E59V, R67K
# VL: B1 VL with K42G, S46R, T69S, F71Y, T85D, I106L
# notes: as for B19
# B27: HumAb747V-70 (antibody, human IgG1, V domains shown)
# VH: B1 VH with D26G, A40R, G42E, K43Q, E46D, E54R, E59V, R67K
# VL: B1 VL with K42G, S46R, S56L, T69S, F71Y, T85D, I106L
# notes: as for B19
# Molecular target: T1, recombinant human LAG-3-his protein …
# Experiment: BLI Octet, Ab on AHC sensor, huLAG-3-his; test group 1
# Description: (§1) All 18 humanized antibodies (Table 34) and a chimeric antibody having the parental murine VH and VL domains (mAb747c) were ranked by dissociation rate constant (koff). Briefly, antibodies were characterized for affinities and binding kinetics by Octet®RED96 biolayer interferometry (Pall ForteBio LLC). Antibodies were captured by Anti-hIgG Fc Capture (AHC) Biosensors (Pall) at a concentration of 100 nM for 30 seconds. Sensors were then dipped into running buffer (1× pH7.2 PBS, 0.05% Tween 20, 0.1% BSA) for 60 seconds to check baseline. Binding was measured by dipping sensors into a single concentration of recombinant human LAG-3-his protein (Novoprotein). Dissociation was followed by dipping sensors into running buffer for 1200 seconds. The association and dissociation curves were fitted to a 1:1 Langmuir binding model using FortéBio Data Analysis software (Pall). In each test group, the off-rates of antibodies were able to be compared with that of mAb747c. The off-rate ratios were calculated by the off-rate of antibody to that of mAb747c of its group and were compared all together. The lower the ratio was, the higher was the affinity of the antibody.
koff,off-rate ratio to that of mAb747c,Binder
0.0109 s⁻¹,801%,B1
0.00925 s⁻¹,682%,B2
0.0144 s⁻¹,1060%,B3
0.011 s⁻¹,809%,B4
0.00803 s⁻¹,592%,B5
0.0108 s⁻¹,797%,B6

# Molecular target: T1, recombinant human LAG-3-his protein …
# Experiment: BLI Octet, Ab on AHC sensor, huLAG-3-his; test group 2
# Description: as §1
koff,off-rate ratio to that of mAb747c,Binder
0.00423 s⁻¹,314%,B7
0.0043 s⁻¹,319%,B8
0.00773 s⁻¹,575%,B9
0.00719 s⁻¹,534%,B10
0.0119 s⁻¹,888%,B11
0.00436 s⁻¹,324%,B12

# Molecular target: T1, recombinant human LAG-3-his protein …
# Experiment: BLI Octet, Ab on AHC sensor, huLAG-3-his; test group 1
# Remark: another data set of the same source
# Description: as §1, with “9” for “18”, “25)” for “34)”, “Octet RED96” for “Octet®RED96”, “FortéBio” for “ForteBio”, “Anti-HIgG” for “Anti-hIgG”, “(Pall).” for “(Pall). In each test group, the off-rates of antibodies were able to be compared with that of mAb747c. The off-rate ratios were calculated by the off-rate of antibody to that of mAb747c of its group and were compared all together. The lower the ratio was, the higher was the affinity of the antibody.”
# The seven Fab clones were converted to full IgG proteins. Briefly, the VH and VL genes were produced synthetically and then cloned into vectors containing coding sequences for the human IgG1 and human kappa constant domains, respectively. The heavy chain and cognate light chain plasmids were co-transfected into HEK 293E cells, individually. After approximately six days of post-transfection cell culture, the supernatants were harvested and subjected to Protein A affinity chromatography. The affinity of purified antibodies was ranked by Octet® RED96 biolayer interferometry (see, Example 9.1, supra).
koff,off-rate ratio to that of mAb747c,Binder
0.00285 s⁻¹,190%,B13
0.0018 s⁻¹,120%,B14
0.00248 s⁻¹,165%,B15
0.00359 s⁻¹,239%,B16
0.00588 s⁻¹,392%,B17
0.00198 s⁻¹,132%,B18

# Molecular target: T1, recombinant human LAG-3-his protein …
# Experiment: as above
# Remark: another data set of the same source
# Description: as §1, with “9” for “18”, “25)” for “34)”, “Octet RED96” for “Octet®RED96”, “FortéBio” for “ForteBio”, “Anti-HIgG” for “Anti-hIgG”, “(Pall).” for “(Pall). In each test group, the off-rates of antibodies were able to be compared with that of mAb747c. The off-rate ratios were calculated by the off-rate of antibody to that of mAb747c of its group and were compared all together. The lower the ratio was, the higher was the affinity of the antibody.”
# (§2) All 13 humanized antibodies (Table 39) and chimeric anti-LAG-3 antibody mAb747c having the parental murine VH and VL domains were ranked by dissociation rate constant (koff) in the same manner described in Example 9.1 supra. In each test group, the off-rates of antibodies were able to be compared with that of mAb747c. The off-rate ratios were calculated by the off-rate of antibody to that of mAb747c of its group and were compared all together. The lower the ratio was, the higher was the affinity of the antibody.
koff,off-rate ratio to that of mAb747c,Binder
0.00048 s⁻¹,78%,B19
0.000292 s⁻¹,47%,B20
0.000522 s⁻¹,85%,B21
0.00045 s⁻¹,73%,B22
0.000584 s⁻¹,95%,B23
0.000686 s⁻¹,112%,B24

# Molecular target: T1, recombinant human LAG-3-his protein …
# Experiment: BLI Octet, Ab on AHC sensor, huLAG-3-his; test group 2
# Remark: another data set of the same source
# Description: as §1, with “9” for “18”, “25)” for “34)”, “Octet RED96” for “Octet®RED96”, “FortéBio” for “ForteBio”, “Anti-HIgG” for “Anti-hIgG”, “(Pall).” for “(Pall). In each test group, the off-rates of antibodies were able to be compared with that of mAb747c. The off-rate ratios were calculated by the off-rate of antibody to that of mAb747c of its group and were compared all together. The lower the ratio was, the higher was the affinity of the antibody.”
# as §2
koff,off-rate ratio to that of mAb747c,Binder
0.000295 s⁻¹,41%,B25
0.000357 s⁻¹,53%,B26
0.000273 s⁻¹,40%,B27
